Blank lines part the entries; values can stand above or below the binder they belong to.
Tests used:
[1] = molecular target: T1, Neurofibromin EF fragment (1821-2818, purified) (human, UniProt P21359-2 1821-2818); assay: SEC; equimolar mixtures of purified NF1 fragments run on SEC; fractions analysed by SDS-PAGE for co-elution; conditions: both partners purified
T1 construct: Neurofibromin, human NF1 isoform 2 (NM_000267.3), residues 1821-2818 (domains E and F); expected molar mass 111 kDa; also called EF domain; C-terminal EF domain; source: baculovirus-based insect cell system, purified; not shown: His6-MBP, N-terminal, cleaved
T1 sequence (looked up): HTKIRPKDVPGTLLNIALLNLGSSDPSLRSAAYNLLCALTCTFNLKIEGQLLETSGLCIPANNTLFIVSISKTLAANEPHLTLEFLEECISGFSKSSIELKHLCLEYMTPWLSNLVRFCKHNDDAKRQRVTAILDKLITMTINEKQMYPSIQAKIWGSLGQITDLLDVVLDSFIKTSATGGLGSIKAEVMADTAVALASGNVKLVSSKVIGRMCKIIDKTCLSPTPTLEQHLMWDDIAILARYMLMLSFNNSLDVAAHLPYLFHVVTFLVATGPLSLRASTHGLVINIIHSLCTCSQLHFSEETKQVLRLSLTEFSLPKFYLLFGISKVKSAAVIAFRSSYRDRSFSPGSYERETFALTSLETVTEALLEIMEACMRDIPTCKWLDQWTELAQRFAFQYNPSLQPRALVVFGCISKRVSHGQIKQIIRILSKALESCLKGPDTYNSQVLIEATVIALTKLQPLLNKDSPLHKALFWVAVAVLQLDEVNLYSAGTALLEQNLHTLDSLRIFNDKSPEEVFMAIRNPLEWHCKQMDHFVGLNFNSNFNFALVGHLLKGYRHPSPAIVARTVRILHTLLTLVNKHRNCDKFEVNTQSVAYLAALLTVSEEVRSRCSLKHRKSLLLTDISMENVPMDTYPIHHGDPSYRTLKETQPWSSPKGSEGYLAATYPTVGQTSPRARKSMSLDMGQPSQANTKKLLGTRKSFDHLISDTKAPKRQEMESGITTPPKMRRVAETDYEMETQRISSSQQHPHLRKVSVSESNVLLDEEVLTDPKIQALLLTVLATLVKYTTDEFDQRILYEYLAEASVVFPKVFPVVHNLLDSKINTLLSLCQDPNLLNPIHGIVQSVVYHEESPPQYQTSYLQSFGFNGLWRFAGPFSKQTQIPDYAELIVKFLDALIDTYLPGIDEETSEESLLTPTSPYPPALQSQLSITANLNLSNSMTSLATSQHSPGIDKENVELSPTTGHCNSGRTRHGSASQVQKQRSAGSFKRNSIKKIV

[2] = molecular target: T2, Neurofibromin DEF fragment (1541-2818, purified) (human, UniProt P21359-2 1541-2818); assay: as above; conditions: both partners purified
T2 construct: expected molar mass 144 kDa; also called DEF domain; carboxy-terminal DEF; source: baculovirus-based insect cell system, purified; not shown: His6-MBP, N-terminal, cleaved

binding result [1]: binds | binding result [2]: binds
B1: Neurofibromin C* domain (1085-1530) (domain or fragment, human, UniProt P21359-2 1085-1530, looked up)
chain: LQPEEGDGVELMEAKSQLFLKYFTLFMNLLNDCSEVEDESAQTGGRKRGMSRRLASLRHCTVLAMSNLLNANVDSGLMHSIGLGYHKDLQTRATFMEVLTKILQQGTEFDTLAETVLADRFERLVELVTMMGDQGELPIAMALANVVPCSQWDELARVLVTLFDSRHLLYQLLWNMFSKEVELADSMQTLFRGNSLASKIMTFCFKVYGATYLQKLLDPLLRIVITSSDWQHVSFEVDPTRLEPSESLEENQRNLLQMTEKFFHAIISSSSEFPPQLRSVCHCLYQVVSQRFPQNSIGAVGSAMFLRFINPAIVSPYEAGILDKKPPPRIERGLKLMSKILQSIANHVLFTKEEHMRPFNDFVKSNFDAARRFFLDIASDCPTSDAVNHSLSFISDGNVLALHRLLWNNQEKIGQYLSSNRDHKAVGRRPFDKMATLLAYLGPPEH
notes: source: purified; not shown: His6-MBP, N-terminal, cleaved

binding result [1]: binds
B2: Neurofibromin C*D domain (1085-1816) (domain or fragment, human, UniProt P21359-2 1085-1816, looked up)
chain: LQPEEGDGVELMEAKSQLFLKYFTLFMNLLNDCSEVEDESAQTGGRKRGMSRRLASLRHCTVLAMSNLLNANVDSGLMHSIGLGYHKDLQTRATFMEVLTKILQQGTEFDTLAETVLADRFERLVELVTMMGDQGELPIAMALANVVPCSQWDELARVLVTLFDSRHLLYQLLWNMFSKEVELADSMQTLFRGNSLASKIMTFCFKVYGATYLQKLLDPLLRIVITSSDWQHVSFEVDPTRLEPSESLEENQRNLLQMTEKFFHAIISSSSEFPPQLRSVCHCLYQVVSQRFPQNSIGAVGSAMFLRFINPAIVSPYEAGILDKKPPPRIERGLKLMSKILQSIANHVLFTKEEHMRPFNDFVKSNFDAARRFFLDIASDCPTSDAVNHSLSFISDGNVLALHRLLWNNQEKIGQYLSSNRDHKAVGRRPFDKMATLLAYLGPPEHKPVADTHWSSLNLTSSKFEEFMTRHQVHEKEEFKALKTLSIFYQAGTSKAGNPIFYYVARRFKTGQINGDLLIYHVLLTLKPYYAKPYEIVVDLTHTGPSNRFKTDFLSKWFVVFPGFAYDNVSAVYIYNCNSWVREYTKYHERLLTGLKGSKRLVFIDCPGKLAEHIEHEQQKLPAATLALEEDLKVFHNALKLAHKDTKVSIKVGSTAVQVTSAERTKVLGQSVFLNDIYYASEIEEICLVDENQFTLTIANQGTPLTFMHQECEAIVQSIIHIRTRWELSQPD
notes: C* constructs have an altered start site within the C domain; source: purified; not shown: His6-MBP, N-terminal, cleaved

Reference: publication doi:10.1101/757856, “Biochemical and structural analysis reveals the Neurofibromin (NF1) protein forms a high-affinity dimer” (bioRxiv, 2019)
